Laboratory results reported in the DeepSol protein solubility set.

assay: soluble on expression in E. coli; label from the status in PepcDB or PDB records

| Sequence | soluble on expression in E. coli |
| --- | --- |
| MNMAEVSKNQVEKALETVIYPGSGKNIVALGMVSEIFIADAKAYFSITVPADKASEMEPLRLAAERAAKSVEGIAGAVVALTADRKPGQQQPAPAGPTPARPAAATGRPAAAPGRPTPQPGSSKVGVPGVRAIIAVASGKGGVGKSTTAVNLALGLQALGLKVGMLDADIYGPSLPRLLKISGRPKQQEDRIILPMENYGLKVMSMGFLVDEEAAMIWRGPMVQSALMQMLREVAWGELDVLVLDMPPGTGDAQLTIAQQVPLAGAVIVSTPQDLALLDARKGITMFRKVEVPLLGVIENMSYFIAPDTGARYDIFGHGGAKAEAERIGVPFLGEVPLTISIREMSDAGTPVVVAEPDGPQAAIYREIAEKVWARMGADERKAAPKIVFELEHHHHHH | not soluble |
| MNMKATALTATTVAIASLLPSMGETNVQKANAEQLSNIKTGYVKVDQVALHTEDNVKSTSIDTIRFNTKVNIIETTNGWYKVSVHNKVGYVQKDAILLKNKLQSNDQYIVNANALNVRSEPNLESSILDVLPNGKFITVQEDQGEWYKISHNGQTGYVQKAFISNGSQPLVKGITVQNNTKYTVATPNLNVRSTASTSSALLGSLQNGTQVQVVETVGTWYKIRFGTGYGYVAKHYVVQNQPQAKTDQPSSIPAAFKFPAQGRISSTFDIRWEQMHYGIDIAAPGNVSIQAAAAGKVVKSYYSASYGNVVFIAHQINGKLYTTVYAHMKDRTVQAGDQVQTGQLIGHMGNTGHSYGQHLHCELHNGEWNFEKTDAVNPLPYLVRLEHHHHHH | soluble |
| MNMPHKFNQYNKSIPVNKHVIELLENDPSLLPSDIAKQLSISEVEVVKSLPKEMVTMVSGLKTQEILEGLVGFGDVTTIVHSFGSIFEVKAPFPKGKIAHGYYNLMGREGQLHGHLKLDLIQDIALISKPFRGTESHYFGFFNHDGHSVFKIYLGRDKKRQLIPEQVEAFNVLKQEYKLEHHHHHH | soluble |
| MNMQKLRIELGEETNDELYDLLLLADPSKDIVDEYLERGECYTAWAGDELAGVYVLLKTRPQTVEIVNIAVKESLQKKGFGKQLVLDAIEKAKKLGADTIEIGTGNSSIHQLSLYQKCGFRIQAIDHDFFLRHYDEDIFENGIQCRDMVRLYLDLLEHHHHHH | soluble |
| MNMTIFIVFVICLSCVSLSLGTETCPPLTTIKPPDDIQKSLFYPSNWNDDLPTPNFAAGQKCSFKVIGPVVPQIRTVHAKSPPLALNAMSSTNPIVVKSDTHVSFLPIPQNYNYLDPILRSVQVYDGPTIDSTHLGTLYQAIASNNSLVSSGKYLTFYSLSWYYSVRNIVILQDYSDIQNYASYQAFTCHNSCGVSLDASKGTAAVLLFNSLSFVNQLSMSDNNSTLSVYTNSISDDNKLSDYSYSNSQTNIPQKFVGNYTIFVLDKGQANLSLKTYTPNNAWWSYVFYGQRGFFASPNFGTSDSDQNLCDAVSINGKHPAKITYTVDRSAIVGPAVLTVSIGGNITIYDVTNLPGPDPISAIGMSIAVNYESNGVISTGAFVSFEFQKSATSNGILFTIVLTICMAIFF | not soluble |
| MNNDLAPHLDIALRHSPPGLAATPIPRVDICVGQGFTEKAPCLYRSMICFILQGSKRVAINDNLLSYDSEHYLISALDLPLIGQILDAEDGQPYVAVSLVLDPALLAVLAASMPAVREREQKGIGITINPMSAPLRDTLLRLLSLLDTPDDIPILAPMVERELLYRLLQGPQGRLL | not soluble |
| MNNENKTHIADSVLDVIVVGGGINGAGIAADAAGRGLTVGLYEASDFASATSSASSKLIHGGLRYLEHYEFRLVSEALAEREVLLAKAPHIAKPMRFRLPHRPFLRPAWMIRAGLFLYDNLGKRTTLPASHSVDLAASGLLKSEITKGFEYSDCWVDDARLVILNAMAAEKNGAEVKNYCRVEKAIRVDNIWHVTVFDVQANVRFERKARALVNAAGPWVKQFFDDSLEDESPRNIRLVKGSHIVVPKIHNEEQAYILQNKDNRIVFVIPYMEDFSIIGTTDVEYKGDPRKVEISEEEVNYLIDVVNQHFVDQIKRDDVVWTYSGVRPLCDDESDSPQAITRDYTLELEQELDQAPLLSIFGGKLTTYRKLGETAMKMLNPYFAKMGTPWTRNVALPGGDFDYPRHQLVDNICCKHPWLAKETVTRYVNQFGTLTWTLLEGIECQSDMGELFAQGVYQAEIDYLIKHEFAKNAEDVLWRRTKLGLYLTEEEEKQIALYIESYLSHRHKVKLQNVILEHHHHHH | soluble |
| MNNGYSPTSSNQQNVSVEHDIIMRGRRIIDITGVKQVESFDSEEFLLETVMGFLTIRGQNLQMKNLDVEKGIVSIKGKVNEMLYIDENQGEKTKGFFSKLFKLEHHHHHH | not soluble |
| MNNIENVDQKLIENLANLMSSEVRAKIYIYLRKYNKSTVDEIAGGTGIYPSTVRESILDMYNTGYVSREKMDKEGLGKKPYLYTAAAPSEIVRKISKNIQEKLNDLIMVDRRIESKELKIPFVPVKIVVDEKYRD | not soluble |
| MNNKYQMGVSTNLKYKGISLGIDFDIRQGGVMYSRTKDINYFTGNAIQTAYNDRNPLIVPNSVNKIVNGENVTYVENTTPITSSNIYKYWGDGGSDMGSCFLVDKSYVKLRSVVLGWDLPKRWLAKTPFQAVKVSAYGNNLFVWTPSSNTFIDPEMTSFGNDLEGNYGEYTANPSSRRFGFNLMVKF | not soluble |
| MNNLPLLNDLRVFMLVARRAGFAAAAEELGVSPAFVSKRVSLLEQTLNVMLLHRTTRRVTITEEGERIYEWAQRILQDVDEMMDELSDVRQVPQGTLRIISSFGFGRRVVAPALSALALQYPQLELRFDVQDRLVDLVNEGVDLDIRVGDDIAPNLIARQLAANHRVLCASPQFLARHAPPKQLSDLAALPCLVIKERDHPFGVWQLHSKEGQHAIKVTGPLSSNHGEIVHQWCLDGQGIALRSWWDVRENIASGHLVQVLPDYWQPANVWAVYVSRLATSAKIRTTVEFLRHYFQLHYPQHEPTASAVGRGD | not soluble |
| MNNNLLIIAGPTAVGKSDLSVDLAKKLNGEIISVDSMQIYKYMDIGSAKISKEEMGGIPHYLIDFVDPSKEFSVAEFKDLTTEKIKDIQSRGKLPILVGGTGLYINSIICNMNFAESDKDEEYREELEKIANEHGNEYLHEMLKDIDLESYNSIHFNNRKRVIRALETYKLTGKPFSSFKAKNSIYETPYNIYYYVLNMDRAKLYDRINKRVDIMFEKGLLEEVKNLKAMGLTDDMQSMKGIGYKEVLYYLDGKISLEQCIEMIKQGSRNYAKRQLTWFRKDPRAIFIDKDTFASEEDISSKIINDIINSMAGDPNSLEHHHHHH | not soluble |
| MNNSSFFGNRLKEERKKLKMTQAEIAEKCGVSGRMWGDYERGISQPKAELFFQFEKVGIDVQYVMHGRRGETAVMPSETLNAEEQELLVLFREAAAADREMILMVARRAEKKAQTALGKVSNG | not soluble |
| MNNTDYMIHLLARTIKTGKDELITPLIIQLSDMQVSRDLLEKHNLPALVAEYAPFNEAAKSLSKSVLAWKYEEIAQEMPQLLKEFVQIAKEKRVPEEFMVRLVTSLMDFDDLDTVRSCLEILNHFEFSLDEYEELGIYRKATQFEGQFRDADEIIAKVDVLLLQDEILEEDEAEVEADDLIGHAEENEEEENDFSDDESVISETESGIYTDEELELEDHFEAVRKEDRKDQVMTEICMMLLAGYIRSGNSEVISAAIKFTWAFDYSLEMYQKYDIQNLIYNFGVHNDDAELLMNHIKELQARELFNENRKFFKRFLRTCMEEKTITDSVLSYLKGFLENGDDYMVSCTLKFLLGMPITLSQFKTSHVEACLENLESGPSAQLGFMLKMKIQKLEHSEKS | not soluble |
| MNNTPKLKLGIVAVSRDCFPMELSENRRKAVVDAYNGEIFECLTTVENEKDMRKALKEVKSAGVNALVVYLGNFGPETPETLIAKEFDGPVMFAAAAEERGDNLVNGRGDAYCGMLNASYNLALRNINAYIPEYPVGTASDVANMINEFVPVATALIGLKNLKIISFGPRPQDFLACNAPIKQLYNLGVEIEENSELDLFASFNEHENDSRIPDVVKDMEEELGEGNKMPGILPKLAQYELTLLDWAEEHKGSREYVVFANKCWPAFQTQFGCVPCYVNSRLTARGIPVSCEVDIYGALSEYIGTCVSQDVVTLLDINNTVPKDMYESEIKSKFNYTLKDTFMGFHCGNTAACKLTSGTMKNQMIMARALEPNQEPNITRGTLEGDIVPGEITFFRLQSNADSELTAYVAEGEVLPVKTRSFGSIGVFAIPQMGRFYRHVLIENRFPHHGAVAFGHFGKAIYNLFRYLGVKEVGFNRPKEMLYKTENPFELEHHHHHH | soluble |
| MNNYLKNLKEVFARIFRPNNRKSTRTYLQRSISYWRRNSIYLDNIYNKISTDTAQLRFKHVKITRNPGGVDSMVWYEHSDLAEVLTVSPNPLEVPVVFWSNVTRAMLRDGVAVVVPRWKNGRLVEIWLAKKTVTWTAESVELMLDDVAVELPLTDVWVFENPKLNVTAQLNQITELIDINLNALTEKLSDGNSSLRGFLKLPTKAADEHLKQQARDRVDSMLDLAKNGGIAYLEQGEEFQELSKDYSTASKEELEFLKSQLYNAHGINEKLFTCDYTEEQYRAYYSSVMKLYQRVYSEEINRKYFTKTARTQGNKLLVFFDMADMISFKDLVEGGFKSKYAGLMNSNEFRETYLGLPGYEGGEVFETNLNAVRIGAEESE | not soluble |
| MNNYSGDIVFMSGGNEEDQLAQCQAYVQRHNIQQLVKEAIVVLCIHKPDNPVLFLKDHFEKLNEQRAQEGGNPDAADDDDIIVEPPKRSGGRRTGISAEPIKEDDTEYKKVVIPKDDATRRSLESAMRKNLLFAHLEEDEQKTMYDAMFPVEKSAGETIIEQGEEGDNFYVIDKGTVDVYVNHEYVLTINEGGSFGELALIYGTPRAATVIAKTDVKLWAIDRLTYRRILMGSVTKKRKMYDEFLSKVQILADLDQWERANVADALERCDFEPGTHVVEQGQPGDEFFIILEGEANVLQKRSDDAPFDVVGHLGMSDYFGEIALLLDRPRAATVVAKTHLKCIKLDRNRFERVMGPVREILKRDVSNYNSYVKLMT | soluble |
| MNPGKPMPLVVHGWTIFAHPLFLAQIEVLIQQVEAHKQKDPVGFVKKNASKRLAAITKLAFDIILQDPARPEYRQGGTLGDDYKHWFRAKFFQQYRLFFRYHTLSKVIVFAWVNDEDTRRAYESSDDAYRMFRKMLENGLPPDDWNQLLAEARAEGQRLQQFAARWW | not soluble |
| MNPKIEDSEFNWENEDIVMKLVDEKGKAHPVSKAELLESLESRKLGLETRVLDKYHENHVAFENVLVLDAPQDLETIVNLLLPWYMGKTLTLFEGPLNYPDSSRLAQIISKHNVDIVLGSDYNYSIPNPEYLKLFPVPSLKLVDLPNFESISNYLTISR | not soluble |
| MNPLVIKLGGVLLDSEEALERLFTALVTYREKHERPLVIMHGGGCLVDELMKRLALPVVKKNGLRVTPADQIDIITGALAGTANKTLLAWAVKHQINAVGLCLADGNTVTVTLLDAELGHVGKAQPGSAALVQTLLAAGYMPIISSIGITVEGQLMNVNADQAATALAATLGADLILLSDVSGILDGKGQRIAEMTAQKAEQLIAQGIITDGMVVKVNAALDAARSLGRPVDIASWRHSEQLPALFNGVPIGTRISV | not soluble |
| MNPRQAFFACLHRSPPALLEAALWIAAEHDPQVVPGLLLEEFKQLQQQVGSSLPTLPANELGQPLLRRLNDLGFQQDEHLPLRPQAALMDKVLERRRGQPLALALIALELAQRLQVPLAGVNFPGHFLLRVPGADHLLDPCGGRRLYPNDCRELLQRQYGAHIKLSAEHLASAEPLQMFQRLSRNLRQLHLSYDDHLGALINAERVLEIGNGSAADYLARASLYQRLECPNAERFDLEHALLLSDDPIQRLRLTERLGHLPPNTIVHLEHHHHHH | soluble |
